Here are results for 1 sequence from patent publication US9550817B2, “Men1 gene for diagnosis and treatment of diabetes” (THE TRUSTEES OF THE UNIVERSITY OF PENNSYLVANIA, priority 2006, dated 2017).

The assay deals with T1, menin (Homo sapiens, UniProt O00255).
T1 construct: made in house; host or cells: E. coli
T1 sequence (O00255 1-610): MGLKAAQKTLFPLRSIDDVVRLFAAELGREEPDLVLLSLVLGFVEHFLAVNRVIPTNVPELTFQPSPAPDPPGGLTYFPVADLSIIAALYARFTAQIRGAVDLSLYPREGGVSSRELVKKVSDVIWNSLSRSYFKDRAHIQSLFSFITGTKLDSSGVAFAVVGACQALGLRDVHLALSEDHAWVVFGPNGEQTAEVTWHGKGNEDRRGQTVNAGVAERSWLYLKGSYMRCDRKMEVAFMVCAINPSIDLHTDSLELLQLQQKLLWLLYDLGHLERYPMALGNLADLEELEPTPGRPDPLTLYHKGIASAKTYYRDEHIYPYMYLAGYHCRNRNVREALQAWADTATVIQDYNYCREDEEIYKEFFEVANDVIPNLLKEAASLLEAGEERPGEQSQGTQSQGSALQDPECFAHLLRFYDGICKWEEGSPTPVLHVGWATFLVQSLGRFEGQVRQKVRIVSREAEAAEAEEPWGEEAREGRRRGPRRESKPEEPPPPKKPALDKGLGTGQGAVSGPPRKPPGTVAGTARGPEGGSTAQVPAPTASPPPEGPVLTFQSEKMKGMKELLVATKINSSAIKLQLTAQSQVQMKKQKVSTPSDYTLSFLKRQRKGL
The experiment in a line: Pull-down of menin by biotinylated peptides on streptavidin-agarose beads, Western blot with anti-menin antibody. The class given is binding. Particulars: menin expressed in and purified from E. coli. How it is done: Biotinylated peptides were synthesized at the Peptide synthesis facility at Yale University, and loaded to streptavidin-agraose beads (Invitrogen, Inc), and incubated with menin expressed in and purified from E. coli. After multiple washings, the beads were analyzed via Western blot analysis using an anti-menin antibody.
Biotinylated peptides were synthesized, loaded to streptavidin-agraose beads (Invitrogen Inc), and incubated with menin expressed in and purified from E. coli. After multiple washings, the beads were analyzed via Western blot analysis using an anti-menin antibody. […] Especially, the peptide designated the sequence […] (SEQ ID No. 7).
On the technique in general: In western blotting, separated proteins are transferred to a membrane and probed.

Consider “MAHSCRWRFPGSGSCRWRFP (Human) [SEQ ID No. 7, short synthetic peptide from the N-terminus of MLL]”, for which the “binding of peptide to menin in vitro (FIG. 12)” value is “able to react with Men1”.
